Experimental data from US20030003482A1 (published 2003).

Molecular target: T1, Human MRP14 (Homo sapiens, UniProt P06702 1-114, limits assumed)
T1 sequence: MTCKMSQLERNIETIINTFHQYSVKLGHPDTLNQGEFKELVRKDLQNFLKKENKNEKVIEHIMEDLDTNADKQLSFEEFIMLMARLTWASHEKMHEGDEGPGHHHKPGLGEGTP
Experiment: statement within the sandwich ELISA example (Example 5)
Procedure: In order to determine the amount of MRP8/MRP14 polypeptide in various wound fluids, wound fluid samples from patients suffering from chronic diabetic wound were collected, venous ulcers as well as wound fluids from wounds of healthy persons. Wound fluids were isolated as described in Example 2 by means of drainage. For the determination of MRP8/MRP14 content, Maxi-Sorb Immunoplates (96-well, Nunc, Wiesbaden, Germany) were coated with polyclonal rabbit antisera against MRP14 by incubating each well overnight at 4° C. with 50 μl of coating solution (anti-MRP14 antibody, 2 μg/ml, in 0.1 M NaHCO3, pH 9.5). […] After removal of the blocking reagent, 50 μl of diluted wound fluid samples (buffer A: PBS containing 0.1% Tween 20) were added and allowed to react with the immobilized capture antibody for 1 h at 37° C. and then washed (3×) with buffer A. Bound antigen was detected by incubation (1 h, 37° C.) of each well with 50 μl of a biotinylated monoclonal antibody against MRP14 (clone S36.48, Dianova, 125 ng/ml antibody in buffer A). […] MRP8 and MRP14 spontaneously form noncovalently associated complexes to a quantitative extent which are detected by the ELISA system. […] The total polypeptide content per probe was determined using the BCA assay.

binding result: binds
B1: Human MRP8 (other)
chain: MLTELEKALNSIIDVYHKYSLIKGNFHAVYRDDLKKLLETECPQYIRKKGADVWFKELDINTDGAVNFQEFLILVIKMGVAAHKKSHEESHKE
notes: Natural protein in human wound fluid and wound biopsy tissue (Western blot); also called calgranulin A
